What was measured:
Format in all cases: cell-based
BE = assay: PrestoBlue cell viability, anti-IGF-1R antibody with U0126, BE (melanoma); conditions: 48 h
Description: (§1) Cells were incubated in 96 well tissue culture plates and cell viability was measured by PrestoBlue cell viability assay (Invitrogen, CA, USA) according to manufacturer's instructions. Fluorescence was measured with excitation at 560 nm and emission at 590 nm. Cell number was calculated from standard curves of fluorescence measurements from known numbers of cells. Triplicate cultures were performed on all experiments.
(§2) The effects of anti-IGF-1R antibodies/MEK inhibitor combination treatment on viability of different types of tumor cells were investigated using PrestoBlue cell viability assay (Invitrogen, CA, USA) according to manufacturer's instructions. (Table 3).
(§3) Cells were incubated in serum free medium for 12 h followed by pretreatment for 60 min without or with 0.5, 1, 3 or 5 μM of the ERK inhibitor U0126, and then treated without or with 100 ng/ml anti-IGF-1R antibodies (Figitumumab or αIR-3 (Calbiochem, US). Cells were incubated in 96 well tissue culture plates for 48 hours and cell viability was measured by PrestoBlue cell viability assay. Fluorescence was measured with excitation at 560 nm and emission at 590 nm. Cell number was calculated from standard curves of fluorescence measurements from known numbers of cells. Triplicate cultures were performed on all experiments. The inhibition induced by anti-IGF-1R antibodies treated cells was calculated as percentage of untreated cells.

MDA-MB-231 = assay: PrestoBlue cell viability, anti-IGF-1R antibody with U0126, MDA-MB-231 (breast carcinoma); conditions: MDA-MB-231 cells, 48 h
Description: as §1, §2, §3

OMM 2.3 = assay: PrestoBlue cell viability, anti-IGF-1R antibody with U0126, OMM 2.3 (liver metastasis of uveal melanoma); conditions: OMM 2.3 cells, 48 h
Description: as §1, §2, §3

Colo 205 = assay: PrestoBlue cell viability, anti-IGF-1R antibody with U0126, Colo 205 (colon carcinoma); conditions: Colo 205 cells, 48 h
Description: as §1, §2, §3

PC-3 = assay: PrestoBlue cell viability, anti-IGF-1R antibody with U0126, PC-3 (prostate carcinoma); conditions: PC-3 cells, 48 h
Description: as §1, §2, §3

H1703 = assay: PrestoBlue cell viability, anti-IGF-1R antibody with U0126, H1703 (lung cancer); conditions: 48 h
Description: as §1, §2, §3

SK-OV-3 = assay: PrestoBlue cell viability, anti-IGF-1R antibody with U0126, SK-OV-3 (ovarian carcinoma); conditions: SK-OV-3 cells, 48 h
Description: as §1, §2, §3

IGF-1R = biological target: T1, IGF-1R (Homo sapiens, UniProt P08069); assay: IGF-1R ubiquitination in ES cells (immunoprecipitation, WB); conditions: 10 min stimulation, serum starved ES cells; all investigated cell lines
T1 construct: all the ES cell lines tested expressed IGF-1R; endogenous in cells; host or cells: Ewing's sarcoma cell lines SKES, RDES, CADO, A673, SKNMC
Description: FIG. 2A-FIG. 2D. Mechanism of CP induced IGF-1R downregulation: β-arrestin1 recruitment and receptor ubiquitination. (A) Cells incubated in serum free medium for 12 h were treated with 0, 0.1 or 1 μg/ml CP for 24 h. Protein lysates were analyzed by WB for IGF-1R and GAPDH as a loading control. […] Protein lysates were analyzed by WB for IGF-1R and GAPDH as a loading control. Signals were quantified by densitometry, normalized to GAPDH and expressed as a percentage of the IGF-1R at 0 h. Data correspond to the mean±SEM from three independent experiments. […] IGF-1R was immunoprecipitated from lysates and analyzed by WB (IB) for ubiquitination (Ub) and IGF-1R as a loading control. Molecular weight markers in KDa are indicated to the left of the panels. (D) β-Arrestin1 (β-arr1) was immunoprecipitated from cell lysates prepared as for (C). Immunoprecipitated proteins were analyzed by WB for IGF-1R. The whole lysates were analyzed by WB for GAPDH as a loading control.
Cells were lysed with 500 μl lysis buffer (110 mM KOAc, 0.5% (v/v) Triton X-100, 100 mM NaCl, protease inhibitor cocktail tablet (Roche), buffering salts pH 7.4). 500 μg of protein was incubated with Dynabeads protein G (10 μl) (Invitrogen, CA, USA) and 1 μg antibody overnight at 4° C. on a rotator platform. […]
These trends were confirmed by densitometric quantification of multiple experiments (FIG. 2B, graphs). […]

OCM-1 = assay: PrestoBlue cell viability, anti-IGF-1R antibody with U0126, OCM-1 (uveal melanoma); conditions: OCM-1 cells, 48 h
Description: as §1, §2, §3

DFB = assay: PrestoBlue cell viability, anti-IGF-1R antibody with U0126, DFB (melanoma); conditions: 48 h
Description: as §1, §2, §3

[1] = U0126 0 μM (60 min pretreatment)
[2] = U0126 0.5 μM (60 min pretreatment)
[3] = U0126 1 μM (60 min pretreatment)
[4] = U0126 3 μM (60 min pretreatment)
[5] = U0126 5 μM (60 min pretreatment)

B1: CP-751,871: anti-IGF-1R antibody figitumumab (Pfizer), IGF-1R antagonist (antibody, chains of the INN, looked up)
heavy: EVQLLESGGGLVQPGGSLRLSCTASGFTFSSYAMNWVRQAPGKGLEWVSAISGSGGTTFYADSVKGRFTISRDNSRTTLYLQMNSLRAEDTAVYYCAKDLGWSDSYYYYYGMDVWGQGTTVTVSSASTKGPSVFPLAPCSRSTSESTAALGCLVKDYFPEPVTVSWNSGALTSGVHTFPAVLQSSGLYSLSSVVTVPSSNFGTQTYTCNVDHKPSNTKVDKTVERKCCVECPPCPAPPVAGPSVFLFPPKPKDTLMISRTPEVTCVVVDVSHEDPEVQFNWYVDGVEVHNAKTKPREEQFNSTFRVVSVLTVVHQDWLNGKEYKCKVSNKGLPAPIEKTISKTKGQPREPQVYTLPPSREEMTKNQVSLTCLVKGFYPSDIAVEWESNGQPENNYKTTPPMLDSDGSFFLYSKLTVDKSRWQQGNVFSCSVMHEALHNHYTQKSLSLSPG
light: DIQMTQFPSSLSASVGDRVTITCRASQGIRNDLGWYQQKPGKAPKRLIYAASRLHRGVPSRFSGSGSGTEFTLTISSLQPEDFATYYCLQHNSYPCSFGQGTKLEIKRTVAAPSVFIFPPSDEQLKSGTASVVCLLNNFYPREAKVQWKVDNALQSGNSQESVTEQDSKDSTYSLSSTLTLSKADYEKHKVYACEVTHQGLSSPVTKSFNRGEC
BE; [1]
  Percentage inhibition of antibody treated cells (100 ng/ml): 22%
BE; [2]
  Percentage inhibition of antibody treated cells (100 ng/ml): 27%
BE; [3]
  Percentage inhibition of antibody treated cells (100 ng/ml): 32%
BE; [4]
  Percentage inhibition of antibody treated cells (100 ng/ml): 45%
BE; [5]
  Percentage inhibition of antibody treated cells (100 ng/ml): 55%
MDA-MB-231; [1]
  Percentage inhibition of antibody treated cells (100 ng/ml): 8%
MDA-MB-231; [2]
  Percentage inhibition of antibody treated cells (100 ng/ml): 12%
MDA-MB-231; [3]
  Percentage inhibition of antibody treated cells (100 ng/ml): 15%
MDA-MB-231; [4]
  Percentage inhibition of antibody treated cells (100 ng/ml): 22%
MDA-MB-231; [5]
  Percentage inhibition of antibody treated cells (100 ng/ml): 32%
OMM 2.3; [1]
  Percentage inhibition of antibody treated cells (100 ng/ml): 12%
OMM 2.3; [2]
  Percentage inhibition of antibody treated cells (100 ng/ml): 35%
OMM 2.3; [3]
  Percentage inhibition of antibody treated cells (100 ng/ml): 45%
OMM 2.3; [4]
  Percentage inhibition of antibody treated cells (100 ng/ml): 65%
OMM 2.3; [5]
  Percentage inhibition of antibody treated cells (100 ng/ml): 97%
Colo 205; [1]
  Percentage inhibition of antibody treated cells (100 ng/ml): 21%
Colo 205; [2]
  Percentage inhibition of antibody treated cells (100 ng/ml): 28%
Colo 205; [3]
  Percentage inhibition of antibody treated cells (100 ng/ml): 34%
Colo 205; [4]
  Percentage inhibition of antibody treated cells (100 ng/ml): 45%
Colo 205; [5]
  Percentage inhibition of antibody treated cells (100 ng/ml): 67%
PC-3; [1]
  Percentage inhibition of antibody treated cells (100 ng/ml): 22%
PC-3; [2]
  Percentage inhibition of antibody treated cells (100 ng/ml): 24%
PC-3; [3]
  Percentage inhibition of antibody treated cells (100 ng/ml): 32%
PC-3; [4]
  Percentage inhibition of antibody treated cells (100 ng/ml): 45%
PC-3; [5]
  Percentage inhibition of antibody treated cells (100 ng/ml): 52%
H1703; [1]
  Percentage inhibition of antibody treated cells (100 ng/ml): 10%
H1703; [2]
  Percentage inhibition of antibody treated cells (100 ng/ml): 15%
H1703; [3]
  Percentage inhibition of antibody treated cells (100 ng/ml): 25%
H1703; [4]
  Percentage inhibition of antibody treated cells (100 ng/ml): 28%
H1703; [5]
  Percentage inhibition of antibody treated cells (100 ng/ml): 32%
SK-OV-3; [1]
  Percentage inhibition of antibody treated cells (100 ng/ml): 17%
SK-OV-3; [2]
  Percentage inhibition of antibody treated cells (100 ng/ml): 25%
SK-OV-3; [3]
  Percentage inhibition of antibody treated cells (100 ng/ml): 35%
SK-OV-3; [4]
  Percentage inhibition of antibody treated cells (100 ng/ml): 55%
SK-OV-3; [5]
  Percentage inhibition of antibody treated cells (100 ng/ml): 67%
IGF-1R
  IGF-1R ubiquitination compared with IGF-1: more potent in generating receptor ubiquitination
OCM-1; [1]
  Percentage inhibition of antibody treated cells (100 ng/ml): 22%
OCM-1; [2]
  Percentage inhibition of antibody treated cells (100 ng/ml): 28%
OCM-1; [3]
  Percentage inhibition of antibody treated cells (100 ng/ml): 35%
OCM-1; [4]
  Percentage inhibition of antibody treated cells (100 ng/ml): 46%
OCM-1; [5]
  Percentage inhibition of antibody treated cells (100 ng/ml): 55%
DFB; [1]
  Percentage inhibition of antibody treated cells (100 ng/ml): 15%
DFB; [2]
  Percentage inhibition of antibody treated cells (100 ng/ml): 17%
DFB; [3]
  Percentage inhibition of antibody treated cells (100 ng/ml): 24%
DFB; [4]
  Percentage inhibition of antibody treated cells (100 ng/ml): 45%
DFB; [5]
  Percentage inhibition of antibody treated cells (100 ng/ml): 55%
